Laboratory results reported in patent US12534534 (F STAR BETA, dated 2026).

What was measured:
[1] = target: human CD137 on primary human CD8+ T cells (human, UniProt Q07011 24-255); assay: cell-based or functional assay
[2] = target: human CD137 on DO11.10-hCD137 cells (human, UniProt Q07011 24-255); assay: cell-based or functional assay
Sequence of human CD137 on DO11.10-hCD137 cells (Q07011 24-255): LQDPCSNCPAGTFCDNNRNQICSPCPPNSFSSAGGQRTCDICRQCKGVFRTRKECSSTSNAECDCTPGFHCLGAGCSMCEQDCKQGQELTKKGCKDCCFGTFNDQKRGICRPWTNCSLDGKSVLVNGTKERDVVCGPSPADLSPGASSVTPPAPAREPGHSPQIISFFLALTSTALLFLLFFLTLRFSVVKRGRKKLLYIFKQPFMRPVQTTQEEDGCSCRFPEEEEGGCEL

Sequence of human CD137 on primary human CD8+ T cells (Q07011 24-255): as above

Binder | Activity of non-crosslinked mAbs at 100 nM (hIL-2 pg/ml) [1] | EC50 (nM), hIL-2 release, primary human CD8+ T cell activation assay, crosslinked mAb [1] | Emax (hIL-2 pg/ml), crosslinked mAb [1] | DO11.10-hCD137 T cell activation assay EC50 (nM), crosslinked [2]
G1AA/FS30-6 (antibody, human IgG1, kappa, L234A L235A, V domains shown) VH: EVQLLESGGGLVQPGGSLRLSCAASGFTVSYYSISWVRQAPGKGLEWVSDIYSYYGYTDYADSVKGRFTISRDNSKNTLYLQMNSLRAEDTAVYYCARVSYGGQAFDYWGQGTLVTVSS VL: EIVLTQSPGTLSLSPGERATLSCRASQSVSSSYLAWYQQKPGQAPRLLIYGASSRATGIPDRFSGSGSGTDFTLTISRLEPEDFAVYYCQQYDDYPVTFGQGTKVEIKR | 532 pg/mL | 1 nM | 1510 pg/mL | –
FS20-22-49AA/FS30-5 variant, Methionine (100D) to I (bispecific antibody, V domains shown) VH: EVQLLESGGGLVQPGGSLRLNCAASGFTFSSYAMSWVRQAPGKGLEWVSAISGSGGSTYYADSVKGRFTISRDNSKNTLYLQMNSLRAEDTAVYYCARSYDKYWGSSIYSGMDYWGQGTLVTVSS VL: EIVLTQSPGTLSLSPGERATLSCRASQSVSSSYLAWYQQKPGQAPRLLIYGASSRATGIPDRFSGSGSGTDFTLTISRLEPEDFAVYYCQQYYSYYPVTFGQGTKVEIKR | – | – | – | 4.4 nM
FS20-22-49AA/FS30-35 variant, Methionine (100F) to H (bispecific antibody, V domains shown) VH: EVQLLESGGGLVQPGGSLRLSCAASGFTFSAYNIHWVRQAPGKGLEWVSDISPYGGATNYADSVKGRFTISRDNSKNTLYLQMNSLRAEDTAVYYCARNLYELSAYSYGHDYWGQGTLVTVSS VL: EIVLTQSPGTLSLSPGERATLSCRASQSVSSSYLAWYQQKPGQAPRLLIYGASSRATGIPDRFSGSGSGTDFTLTISRLEPEDFAVYYCQQYYYSSPITFGQGTKVEIKR | – | – | – | 9.5 nM
